# Numbering of substitutions follows the chain as printed.
# B1: antibody from clone 793 (antibody, human IgG1, kappa, V domains shown)
# VH: QVQLVESGGGLVKPGGSLRLSCAASGFPFGDYYMSWIRQAPGKGLEWVAYINRGGTTIYYADSVKGRFTISRDNAKNSLFLQMNSLRAGDTALYYCARGLILALPTATVELGAFDIWGQGTMVTVSS
# VL: DIQMTQSPSSLSASVGDRVTITCRASQSITGYLNWYQQKPGKAPKLLIYATSTLQSEVPSRFSGSGSGTDFTLTISSLQPEDFATYYCQQSYNTLTFGGGTKVEIKR
# B2: antibody from clone 853 (antibody, human IgG1, kappa, V domains shown)
# VH: EVQLVQSGAEVKKPGQSLKISCKTSGYIFTNYWIGWVRQRPGKGLEWMGVIFPADSDARYSPSFQGQVTISADKSIGTAYLQWSSLKASDTAIYYCARPKYYFDSSGQFSEMYYFDFWGQGTLVTVSS
# VL: EIVLTQSPGTLSLSPGERATLSCRASQSVSSNYLAWYQQKPGQAPRLLIYGASSRAAGMPDRFSGSGSGTDFTLTISRLEPEDFAVYYCQQYGNSPLTFGGGTEVEIKR
# B3: antibody from clone 855 (antibody, human IgG1, kappa, V domains shown)
# VH: QVQLVQSGPEVKKPGASVKVSCKASGYVLTNYAFSWVRQAPGQGLEWLGWISGSNGNTYYAEKFQGRVTMTTDTSTSTAYMELRSLRSDDTAVYFCARDLLRSTYFDYWGQGTLVTVSS
# VL: DIQMTQSPSSVSASVGDRVTITCRASQAISNWLAWYQQKPGKAPKLLIYAASSLQSGVPSRFSGSGSGTDFTLTISGLQPEDFATYYCQQADTFPFTFGPGTKVDIKR
# B4: antibody from clone 888 (antibody, human IgG1, kappa, V domains shown)
# VH: QLQLQESGPGLVKPSETLSLTCTASGGSINSSNFYWGWIRQPPGKGLEWIGSIFYSGTTYYNPSLKSRVTISVDTSKNQFSLKLSPVTAADTAVYHCARHGFRYCNNGVCSINLDAFDIWGQGTMVTVSS
# VL: DIVMTQSPLSLPVTPGAPASISCRSSQSLLRTNGYNYLDWYLQKPGQSPQLLIYLGSIRASGVPDRFSGSGSGTDFTLKISRVEAEDVGVYYCMQSLQTSITFGQGTRLEIKR
# B5: Palivizumab (antibody, V domains shown)
# VH: QVTLRESGPALVKPTQTLTLTCTFSGFSLSTSGMSVGWIRQPPGKALEWLADIWWDDKKDYNPSLKSRLTISKDTSKNQVVLKVTNMDPADTATYYCARSMITNWYFDVWGAGTTVTVSS
# VL: DIQMTQSPSTLSASVGDRVTITCKCQLSVGYMHWYQQKPGKAPKLLIYDTSKLASGVPSRFSGSGSGTEFTLTISSLQPDDFATYYCFQGSGYPFTFGGGTKLEIK
# B6: Fab fragment of antibody from clone 796 (Fab, V domains shown)
# VH: QVQLVESGGGVVQPGRSLRLSCAASGFSFSHFGMHWVRQVPGKGLEWVAIISYDGNNVHYADSVKGRFTISRDNSKNTLFLQMNSLRDDDTGVYYCAKDDVATDLAAYYYFDVWGRGTLVTVSS
# VL: DIVMTQTPLSLSVTPGQPASISCRSSQSLLRSDGKTFLYWYLQKPGQSPQPLMYEVSSRFSGVPDRFSGSGSGADFTLNISRVETEDVGIYYCMQGLKIRRTFGPGTKVEIKR
# notes: also called Fab clone 796; 796 (G)
# B7: Fab fragment of antibody from clone 811 (Fab, V domains shown)
# VH: QVQLVQSGAVVETPGASVKVSCKASGYIFGNYYIHWVRQAPGQGLEWMAVINPNGGSTTSAQKFQDRITVTRDTSTTTVYLEVDNLRSEDTATYYCARQRSVTGGFDAWLLIPDASNTWGQGTMVTVSS
# VL: DIVMTQSPDSLAVSLGERATINCRSSETVLYTSKNQSYLAWYQQKARQPPKLLLYWASTRESGVPARFSGSGSGTDFTLAISSLQAEDVAVYYCQQFFRSPFTFGPGTRLEIKR
# notes: also called Fab clone 811; 811 (G)
# B8: Fab fragment of antibody from clone 816 (Fab, V domains shown)
# VH: EVQLLESGGGLVQPGGSLRLSCVASGFTFSTYAMTWVRQAPGKGLEWVSVIRASGDSEIYADSVRGRFTISRDNSKNTVFLQMDSLRVEDTAVYFCANIGQRRYCSGDHCYGHFDYWGQGTLVTVSS
# VL: DIVMTQSPLSLPVTPGEPASISCRSSQSLLHSDGRYYVDWYLQKPGQSPHLLIYLASNRASGVPDRFTGSGSGTDFTLKISRVEAEDVGVYYCMQGLHTPWTFGQGTKVDIKR
# B9: Fab fragment of antibody from clone 838 (Fab, V domains shown)
# VH: QVQLVESGGGVVQPGTSLRLSCAASGFTFSTFGMHWVRQAPGKGLEWVAVISYDGNKKYYADSVKGRFTISRDNSKNTLYLQVNSLRVEDTAVYYCAAQTPYFNESSGLVPDWGQGTLVTVSS
# VL: DIQMTQSPSSLSASVGDRVSITCRASQGISNYLAWYQQKPGKVPKLLIYAASTLQSGVPSRFSGSGSGTDFTLTISSLQPEDVATYYCQKYNSAPQTFGQGTKVEIKR
# notes: also called Fab clone 838; 838 (G)
# B10: Fab fragment of antibody from clone 853 (Fab, V domains shown)
# VH: B2 VH
# VL: B2 VL
# notes: also called Fab clone 853; 853 (G)
# B11: Fab fragment of antibody from clone 859 (Fab, V domains shown)
# VH: QVQLVESGGGVVQPGRSLRLSCAVSGSSFSKYGIHWVRQAPGKGLEWVAVISYDGSKKYFTDSVKGRFTIARDNSQNTVFLQMNSLRAEDTAVYYCATGGGVNVTSWSDVEHSSSLGYWGLGTLVTVSS
# VL: B9 VL with S20T, S30R, I48V, Y49F, K90R, Q96L, Q100G
# notes: also called Fab clone 859; 859 (G)
# B12: antibody from clone 816 (antibody, human IgG1, kappa, V domains shown)
# VH: B8 VH
# VL: B8 VL
# B13: antibody from clone 835 (antibody, human IgG1, kappa, V domains shown)
# VH: QVQLVQSGAEVKRPGASVKVSCKASGYTFISYGFSWVRQAPGQGLEWMGWSSVYNGDTNYAQKFHGRVNMTTDTSTNTAYMELRGLRSDDTAVYFCARDRNVVLLPAAPFGGMDVWGQGTMVTVSS
# VL: DIQLTQSPSFLSASLEDRVTITCRASQGISSYLAWYQQKPGKAPKLLLDAASTLQSGVPSRFSGSGSGTEFTLTISSLQPEDFATYYCQQLNSYPRTFGQGTKVDIKR
# B14: antibody from clone 841 (antibody, human IgG1, kappa, V domains shown)
# VH: QVQLVQSGAEVKKPGASVKVSCKASGYTFISFGISWVRQAPGQGLEWMGWISAYNGNTDYAQRLQDRVTMTRDTATSTAYLELRSLKSDDTAVYYCTRDESMLRGVTEGFGPIDYWGQGTLVTVSS
# VL: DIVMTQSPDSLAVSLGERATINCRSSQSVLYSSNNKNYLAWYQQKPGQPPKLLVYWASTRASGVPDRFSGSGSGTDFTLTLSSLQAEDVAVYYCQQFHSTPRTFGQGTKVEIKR
# B15: antibody from clone 856 (antibody, human IgG1, kappa, V domains shown)
# VH: QVQLVQSGAEVKKPGASVKVSCKASGYTFSNYGFSWVRQAPGRGLEWMGWISAYNGNTYYAQNLQGRVTMTTDTSTTTAYMVLRSLRSDDTAMYYCARDGNTAGVDMWSRDGFDIWGQGTMVTVSS
# VL: DIVMTQTPLSLPVTPGEPASISCRSSQSLLDSNDGNTYLDWYLQKPGQSPQLLIYTFSYRASGVPDRFSGSGSGTDFTLKISRVEAEDVGVYYCMQRIEFPYTFGQGTKLEIKR
# Columns and labels:
# [1] = target: T1, recombinant human fractalkine (CX3CL1; R&D systems) (human, UniProt P78423 25-100); assay: ELISA
# T1 sequence (looked up): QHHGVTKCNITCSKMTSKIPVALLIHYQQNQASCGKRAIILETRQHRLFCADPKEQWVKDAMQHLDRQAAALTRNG
# [2] = target: RSV G protein (receptor-binding glycoprotein) (human respiratory syncytial virus, …); assay: cell-based or functional assay
# [3] = target: RSV protein F (fusion glycoprotein), recombinant or purified (human respiratory syncytial virus, …, UniProt P03420 26-109; P03420 137-524); assay: cell-based or functional assay
# [4] = target: T2, soluble recombinant G protein (amino acids 66-292 of the 18537 strain sequence) (RSV strain 18537 (subtype B), UniProt P20896 66-292); assay: SPR (Biacore 3000), Fab over immobilised recombinant antigen;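 also: antigen immobilised on CM5 chip at very low density (about 50 RU), rate constants fitted globally with a 1:1 Langmuir model, Fabs obtained by enzymatic cleavage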
# T2 construct: also called G(B); recombinant protein G
# T2 sequence: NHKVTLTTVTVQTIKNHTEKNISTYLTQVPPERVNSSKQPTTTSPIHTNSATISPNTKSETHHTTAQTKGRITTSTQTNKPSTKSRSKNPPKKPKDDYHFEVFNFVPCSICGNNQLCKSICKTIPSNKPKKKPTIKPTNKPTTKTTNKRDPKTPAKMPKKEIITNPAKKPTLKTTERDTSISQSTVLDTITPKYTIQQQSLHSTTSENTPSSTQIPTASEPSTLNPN
# Sequence of RSV protein F (fusion glycoprotein), recombinant or purified (P03420 26-109, chain 1 of 2): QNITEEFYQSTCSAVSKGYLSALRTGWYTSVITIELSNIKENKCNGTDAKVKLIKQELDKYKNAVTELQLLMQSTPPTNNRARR
# Sequence of RSV protein F (fusion glycoprotein), recombinant or purified (P03420 137-524, chain 2 of 2): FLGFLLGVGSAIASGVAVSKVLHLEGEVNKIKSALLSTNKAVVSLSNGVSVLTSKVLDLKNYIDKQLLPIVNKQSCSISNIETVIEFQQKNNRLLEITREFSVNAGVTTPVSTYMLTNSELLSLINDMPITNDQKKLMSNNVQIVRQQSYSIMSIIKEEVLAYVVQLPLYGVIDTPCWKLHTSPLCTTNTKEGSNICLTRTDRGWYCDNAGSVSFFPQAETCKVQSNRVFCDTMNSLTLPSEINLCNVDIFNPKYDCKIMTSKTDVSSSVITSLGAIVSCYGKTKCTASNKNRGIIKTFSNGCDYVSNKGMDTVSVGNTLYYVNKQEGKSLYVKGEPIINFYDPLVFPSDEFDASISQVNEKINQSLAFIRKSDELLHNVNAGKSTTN
Binder,binding result [1],"EC50, PRNT with complement, RSV subtype A [2]","EC50, PRNT with complement, RSV subtype A [3]",Kd [4],koff [4],kon [4],t1/2 [4]
B1,no binding,2.52 µg/mL,,,,,
B2,no binding,1.49 µg/mL,,,,,
B3,no binding,6.35 µg/mL,,,,,
B4,no binding,0.14 µg/mL,,,,,
B5,,,0.14 µg/mL,,,,
B6,,,,0.48 nM,0.000403 s⁻¹,833000 M⁻¹ s⁻¹,0.478 h
B7,,,,0.34 nM,0.000171 s⁻¹,498000 M⁻¹ s⁻¹,1.13 h
B8,,,,0.09 nM,0.000178 s⁻¹,2.02e+06 M⁻¹ s⁻¹,1.08 h
B9,,,,0.19 nM,5.06e-05 s⁻¹,264000 M⁻¹ s⁻¹,3.83 h
B10,,,,0.79 nM,0.0014 s⁻¹,1.77e+06 M⁻¹ s⁻¹,0.138 h
B11,,,,0.12 nM,4.63e-05 s⁻¹,380000 M⁻¹ s⁻¹,4.17 h
B12,no binding,,,,,,
B13,no binding,,,,,,
B14,no binding,,,,,,
B15,no binding,,,,,,
